We go through 167 variants from the RNAGym collection of RNA variant scans (doi:10.7554/elife.80360).

B1: Twister Ribozyme (parent)
chain: AACACUGCCAAUGCCGGUCCCAAGCCCGGAUAAAAGUGGAGGGGGCGG

Variants of B1 are the subject of this data set. The experiment in a line: self-cleavage, relative activity (ratio to wild type); higher = more cleavage; co-transcriptional.
Turning to C8G C25U, the self-cleavage is 0.112.
Under C19U G42U stands 0.142.
With A10C G47A the figure was 0.834; with A4G C20A, 0.14.
With C8U C21G the figure was 0.0658; with G16C G29C, 0.117; with A1U C14A, 0.0917.
For the variant G7A U18G, the self-cleavage was 0.066.
Under C15U G47A stands 0.84.
With A2U A35C the figure was 0.745; with A34U G45A, 0.815.
Under A1C G24A stands 0.161; under A22C A35C, 1.01.
As to C19G G44U, the self-cleavage was found to be 0.29.
In the case of A30U U31C, the self-cleavage turned out to be 1.02.
With U6G U37A the figure was 0.112; with A30C G42C, 0.111; with A11G C25G, 0.437.
Under C3U G43U stands 0.0863; under A22G G45C, 0.124.
With A10U G38A the figure was 1.04.
For the variant C20U G48A, the self-cleavage was 0.907.
Under C19G G41U stands 0.104; under G13U U31A, 0.43; under C5A A35C, 0.655.
With C8U A22U the figure was 0.419.
Under C14G G39U stands 0.0771.
Turning to A1U G47A, the self-cleavage is 0.0626.
Under A2C C46U stands 0.0993; under G7U U37G, 0.0777; under C3G C14G, 0.0805.
On to C8A G41C, for which the self-cleavage worked out at 0.124.
With G13C G29U the figure was 0.46; with A22C A23U, 0.243; with G7A G13A, 0.0834.
Under G39A G43C stands 0.134; under C14G A33C, 0.176.
Under C27U G28C stands 0.568.
Regarding U6G C9A, the self-cleavage is 0.279.
With A2C C27A the figure was 0.0541; with A2U C27G, 0.126.
A22C A40C: the self-cleavage was 0.102.
Under C5A U31G stands 0.524.
With U6G A23C the figure was 0.0334; with A34G A40C, 0.198; with A1G A2C, 1.43.
With G38U G44C the figure was 0.829.
In the case of G13A G44U, the self-cleavage came out at 0.845.
Under C9A U12G stands 0.417.
As to A2C A11G, the self-cleavage was 0.102.
With A30G G48C the figure was 1.13; with C19U A32U, 1.02.
For G45C G47U, the self-cleavage came out at 0.177.
Under G42U G43A stands 0.129; under A10C A11C, 0.907.
Under U31C A32U stands 1.02; under G28U A33U, 0.833.
Under C8U G38C stands 0.644; under G13U A34G, 0.211; under C5A G39A, 0.161.
Turning to G38A G41U, the self-cleavage came to 0.315.
With U12A U31C the figure was 1.13.
Under A1U U18C stands 0.054.
For C9A C21U, the self-cleavage amounted to 0.0545.
Consider C3A U18A, for which the self-cleavage is 0.0528.
A10G G45U: the self-cleavage worked out at 0.883.
Under G16U G44A stands 1.01; under G7A C19U, 0.122.
With A4U G39A the figure was 0.0691; with G7U A33G, 0.0484.
In the case of C26G A34G, the self-cleavage stood at 0.0982.
With C5U G7A the figure was 0.147.
With C8G A10C the figure was 0.872; with C8G A10G, 0.592; with A30U G36U, 0.294.
Turning to A1G G41U, the self-cleavage was 0.228.
Under A23U A33G stands 0.18.
With C21U C26U the figure was 0.0769; with C3G U37G, 0.478.
Under C26G G28U stands 0.0926; under A11U G42C, 0.623.
For the variant G17U C20U, the self-cleavage was 0.167.
Under G28A G45U stands 0.375.
As to A11U G29U, the self-cleavage turned out to be 1.04.
With C8A A23G the figure was 0.0496; with A23C A35U, 0.404; with G41U G47U, 0.3.
Under A11U C46U stands 0.914; under U6C G24U, 0.0929; under U31C G36U, 0.321.
Under A11C A32C stands 0.769.
On to A23C U31G, for which the self-cleavage stood at 0.274.
With U12G A34G the figure was 0.608.
Under C20U A30G stands 0.823; under G7U G36U, 0.0615; under A2G G39C, 0.0951.
Take A2G G39U: the self-cleavage amounted to 0.122.
Under G24A A40U stands 0.112; under C15A C19U, 0.566.
For the variant C27A G47A, the self-cleavage came out at 0.238.
With U6C A40C the figure was 0.11.
Under C14U A22U stands 0.848.
Under U31C G41C stands 0.306; under U12G G16C, 0.753.
For the variant A4G U18A, the self-cleavage is 0.364.
Under C27G G36U stands 0.0875; under C27G G36A, 0.0994; under G38U G41U, 0.196.
Under A2C U18A stands 0.0761; under A2C U18G, 0.0901.
A2C U18C: the self-cleavage was determined as 0.0934.
With G17C G48A, the self-cleavage is 0.133.
With G7C U12A the figure was 0.0478; with C15G G43C, 0.0538.
With G39A G44U the figure was 0.322; with U12C G44C, 0.932.
G16A A22G: the self-cleavage worked out at 0.155.
With A30C G36U the figure was 0.0939; with A32U C46U, 1.02.
Under G7A stands 0.615; under C26U A34G, 0.147; under C5A C15U, 0.398.
Under C19A U37G stands 0.0778.
Regarding U12G A30C, the self-cleavage was found to be 0.969.
Under G17A G47C stands 0.224.
Consider A11U C15G, for which the self-cleavage is 0.0907.
Under A11G C21A stands 0.107.
With C3U A30U, the self-cleavage amounted to 0.397.
With G24C the figure was 0.102.
For the variant U18G G36C, the self-cleavage was found to be 0.0571.
Under A35U G42C stands 0.539; under A35U G42A, 0.376; under A35C, 0.962.
With G17C A30C the figure was 0.101.
With C9G A33G the figure was 0.548; with G28C G38A, 0.743.
A10U: the self-cleavage was 0.982.
For A10G C27G, the self-cleavage was found to be 0.105.
With G16U C20G the figure was 0.098; with C25U U37C, 0.133; with A30U A34U, 0.85.
With C20U C27G the figure was 0.0816.
With C8A C14G the figure was 0.0608; with C8A C14A, 0.529; with C27U C46A, 0.825.
As to A10G G36A, the self-cleavage worked out at 0.786.
Under A34C G48A stands 0.187; under A1G C27A, 0.189.
With A1C G7U the figure was 0.149; with C8U G45A, 0.492.
With C27U U37A the figure was 0.444.
A4G C9G: the self-cleavage was determined as 0.601.
As for A32U G45C, the self-cleavage stood at 0.506.
With A4G C15A the figure was 0.631.
With G29A A34G the figure was 0.684; with C21G G45U, 0.0493; with C5G G17C, 0.0444.
As for C19A A40U, the self-cleavage came out at 0.16.
Consider G24A A34C, for which the self-cleavage came out at 0.0735.
Regarding U6A C20U, the self-cleavage stood at 0.82.
With U31C G38C the figure was 0.842; with G13U G41C, 0.149; with A23G A34G, 0.112.
Consider A1G U6C, for which the self-cleavage came to 0.202.
With C8G C27U the figure was 0.14.
With C5A G43U the figure was 0.108; with U12A G42A, 0.463.
